# Assay results as given in article PMC3902948.
# Substrate: Nc1ncnc2c1ncn2[C@@H]1O[C@H](COP(=O)(O)OP(=O)(O)OP(=O)(O)O)[C@@H](O)[C@H]1O
# Test: purified protein
# Details: no RNA, 100 mM NaCl, 10 mM Tris pH 7.5, 2 mM MgCl2
Protein,Km [µM],Vmax [µM/min]
Prp43 (Saccharomyces cerevisiae S288C) (protein) MGSKRRFSSEHPDPVETSIPEQAAEIAEELSKQHPLPSEEPLVHHDAGEFKGLQRHHTSAEEAQKLEDGKINPFTGREFTPKYVDILKIRRELPVHAQRDEFLKLYQNNQIMVFVGETGSGKTTQIPQFVLFDEMPHLENTQVACTQPRRVAAMSVAQRVAEEMDVKLGEEVGYSIRFENKTSNKTILKYMTDGMLLREAMEDHDLSRYSCIILDEAHERTLATDILMGLLKQVVKRRPDLKIIIMSATLDAEKFQRYFNDAPLLAVPGRTYPVELYYTPEFQRDYLDSAIRTVLQIHATEEAGDILLFLTGEDEIEDAVRKISLEGDQLVREEGCGPLSVYPLYGSLPPHQQQRIFEPAPESHNGRPGRKVVISTNIAETSLTIDGIVYVVDPGFSKQKVYNPRIRVESLLVSPISKASAQQRAGRAGRTRPGKCFRLYTEEAFQKELIEQSYPEILRSNLSSTVLELKKLGIDDLVHFDFMDPPAPETMMRALEELNYLACLDDEGNLTPLGRLASQFPLDPMLAVMLIGSFEFQCSQEILTIVAMLSVPNVFIRPTKDKKRADDAKNIFAHPDGDHITLLNVYHAFKSDEAYEYGIHKWCRDHYLNYRSLSAADNIRSQLERLMNRYNLELNTTDYESPKYFDNIRKALASGFFMQVAKKRSGAKGYITVKDNQDVLIHPSTVLGHDAEWVIYNEFVLTSKNYIRTVTSVRPEWLIEIAPAYYDLSNFQKGDVKLSLERIKEKVDRLNELKQGKNKKKSKHSKK,11.07 ± 2.07,2.43
Prp43/Ntr1(51–110) (Saccharomyces cerevisiae S288C) (protein) MGSKRRFSSEHPDPVETSIPEQAAEIAEELSKQHPLPSEEPLVHHDAGEFKGLQRHHTSAEEAQKLEDGKINPFTGREFTPKYVDILKIRRELPVHAQRDEFLKLYQNNQIMVFVGETGSGKTTQIPQFVLFDEMPHLENTQVACTQPRRVAAMSVAQRVAEEMDVKLGEEVGYSIRFENKTSNKTILKYMTDGMLLREAMEDHDLSRYSCIILDEAHERTLATDILMGLLKQVVKRRPDLKIIIMSATLDAEKFQRYFNDAPLLAVPGRTYPVELYYTPEFQRDYLDSAIRTVLQIHATEEAGDILLFLTGEDEIEDAVRKISLEGDQLVREEGCGPLSVYPLYGSLPPHQQQRIFEPAPESHNGRPGRKVVISTNIAETSLTIDGIVYVVDPGFSKQKVYNPRIRVESLLVSPISKASAQQRAGRAGRTRPGKCFRLYTEEAFQKELIEQSYPEILRSNLSSTVLELKKLGIDDLVHFDFMDPPAPETMMRALEELNYLACLDDEGNLTPLGRLASQFPLDPMLAVMLIGSFEFQCSQEILTIVAMLSVPNVFIRPTKDKKRADDAKNIFAHPDGDHITLLNVYHAFKSDEAYEYGIHKWCRDHYLNYRSLSAADNIRSQLERLMNRYNLELNTTDYESPKYFDNIRKALASGFFMQVAKKRSGAKGYITVKDNQDVLIHPSTVLGHDAEWVIYNEFVLTSKNYIRTVTSVRPEWLIEIAPAYYDLSNFQKGDVKLSLERIKEKVDRLNELKQGKNKKKSKHSKK,13.42 ± 1.93,9.54
Prp43/Ntr1(1–120) (Saccharomyces cerevisiae S288C) (protein) MGSKRRFSSEHPDPVETSIPEQAAEIAEELSKQHPLPSEEPLVHHDAGEFKGLQRHHTSAEEAQKLEDGKINPFTGREFTPKYVDILKIRRELPVHAQRDEFLKLYQNNQIMVFVGETGSGKTTQIPQFVLFDEMPHLENTQVACTQPRRVAAMSVAQRVAEEMDVKLGEEVGYSIRFENKTSNKTILKYMTDGMLLREAMEDHDLSRYSCIILDEAHERTLATDILMGLLKQVVKRRPDLKIIIMSATLDAEKFQRYFNDAPLLAVPGRTYPVELYYTPEFQRDYLDSAIRTVLQIHATEEAGDILLFLTGEDEIEDAVRKISLEGDQLVREEGCGPLSVYPLYGSLPPHQQQRIFEPAPESHNGRPGRKVVISTNIAETSLTIDGIVYVVDPGFSKQKVYNPRIRVESLLVSPISKASAQQRAGRAGRTRPGKCFRLYTEEAFQKELIEQSYPEILRSNLSSTVLELKKLGIDDLVHFDFMDPPAPETMMRALEELNYLACLDDEGNLTPLGRLASQFPLDPMLAVMLIGSFEFQCSQEILTIVAMLSVPNVFIRPTKDKKRADDAKNIFAHPDGDHITLLNVYHAFKSDEAYEYGIHKWCRDHYLNYRSLSAADNIRSQLERLMNRYNLELNTTDYESPKYFDNIRKALASGFFMQVAKKRSGAKGYITVKDNQDVLIHPSTVLGHDAEWVIYNEFVLTSKNYIRTVTSVRPEWLIEIAPAYYDLSNFQKGDVKLSLERIKEKVDRLNELKQGKNKKKSKHSKK,16.37 ± 1.81,11.2
